± gives the standard deviation.

This data set can be described thus: protein stability index of a GFP-peptide fusion (GPS, HEK-293T) (PSI 1-6); higher = more stable. The note with it: c terminus: a fixed tail appended.
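Also: 24-mer peptide tiles fused after GFP, lentivirally expressed, FACS-sorted into six equal bins by GFP/DsRed ratio, decoded by Illumina sequencing, PSI is the read-weighted mean bin number.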

Regarding DVVEYLVDRCGASVEAGGSVHFDG [FEM1A], the protein stability index worked out at 2.48 ± 0.32 (treatment: DMSO) and 2.46 ± 0.6 (treatment: MLN4924 1 uM, 8 h). DVVNYFRTVGFEEQASAFQEQEID [SAMD13]: the protein stability index by setting is: (treatment: DMSO) 3.44 ± 0.28; (treatment: MLN4924 1 uM, 8 h) 3.88 ± 0.44. For EAEADKPRRLGRLKYQAPDIDVQL [NOP53] the same measures were 4.63 ± 0.22 and 4.4 ± 0.2. Sequence EAERKIIEENITSAAPSNDQDGEY [SRPK2] had a protein stability index (treatment: DMSO) of 5.66 ± 0.17 and a protein stability index (treatment: MLN4924 1 uM, 8 h) of 5.69 ± 0.26.

In the case of EAPQWLESDSCQKCEQPFFWNIKQ [WDFY1], the protein stability index is, setting by setting: (treatment: DMSO) 3.32 ± 0.7; (treatment: MLN4924 1 uM, 8 h) 3.48 ± 0.38. Regarding EDEDDDSADMDESDEDDEEERRRR [FBXO3], the protein stability index by setting is: (treatment: DMSO) 5.65 ± 0.27; (treatment: MLN4924 1 uM, 8 h) 5.69 ± 0.12. On the same counts, the results for EDYGHWLLCLRAVTHREGAPPLPG [PLEKHN1] are 2 ± 0.14 and 2.16 ± 0.26. With EEEEGTMMKAKGDLEMKEEEEISE [ZBED2], under “treatment: MLN4924 1 uM, 8 h”, the protein stability index was 5.53 ± 0.53. With EEEVFPLAMNYLDRFLAGVPTPKS [CCND2], the protein stability index is, setting by setting: (treatment: DMSO) 3.35 ± 0.43; (treatment: MLN4924 1 uM, 8 h) 3.55 ± 0.25. For EEFILLSQGEVEKLIKCDEIQVDS [KLHL12] the same measures were 4.49 ± 0.58 and 4.45 ± 0.48.

As to EEGIVSPSDLDLVMSEGLGMRYAF [CRYL1], the protein stability index (treatment: DMSO) came to 2.27 ± 0.42 and the protein stability index (treatment: MLN4924 1 uM, 8 h) was 3.02 ± 0.31.

EEIPVVICAAAGRMGATMAAINSI [GLT8D2] had a protein stability index (treatment: DMSO) of 2.48 ± 0.52 and a protein stability index (treatment: MLN4924 1 uM, 8 h) of 2.22 ± 0.21.

For the sequence EELQSWVRGHHPKSGEEAVTVLED [ZNF232], the protein stability index turned out to be 5.09 ± 0.38 (treatment: DMSO) and 5.07 ± 0.39 (treatment: MLN4924 1 uM, 8 h). For the sequence EERERIERVRRIHIKRPDDRAHLH [KCTD10], the protein stability index is 4.43 ± 0.18 (treatment: DMSO) and 4.54 ± 0.23 (treatment: MLN4924 1 uM, 8 h). For EETRQKQLLADEKMKQLTEETEVL [TRIM35] the same measures were 5.65 ± 0.11 and 5.57 ± 0.22. For EEWGHQDPSKRALSRDTVQESYEN [ZNF263] the same measures were 5.27 ± 0.4 and 5.3 ± 0.23.

As for EGNQKGEQATSLAILRVIRLVRVF [KCNA1], the protein stability index was determined as 2.2 ± 0.37 (treatment: DMSO) and 2.28 ± 0.37 (treatment: MLN4924 1 uM, 8 h). For EGSLQQPKAQSAMSPYLVPDTQAL [SMG5] the same measures were 4.39 ± 0.27 and 4.5 ± 0.18. On to EHAIAEAQKNMYFKTRLKCPRSLS [ZNF396], for which the protein stability index is, setting by setting: (treatment: DMSO) 3.26 ± 0.23; (treatment: MLN4924 1 uM, 8 h) 3.53 ± 0.3. For the sequence EHSHRSHHSLASSLRSHHTHPSYG [DVL3], the protein stability index by setting is: (treatment: DMSO) 3.48 ± 0.25; (treatment: MLN4924 1 uM, 8 h) 3.56 ± 0.19. On the same counts, the results for EIPIHGNGEARQLPEDDGLEQDLQ [ARFIP2] are 5.04 ± 0.36 and 5.28 ± 0.12. For EKETMQFLNDRLANYLEKVRQLER [KRT36] the same measures were 2.87 ± 0.38 and 2.85 ± 0.32. In turn, EKFSSSLHELSSRVEASHLTTSQE [FBF1] came in with a protein stability index (treatment: DMSO) of 4.99 ± 0.19 and a protein stability index (treatment: MLN4924 1 uM, 8 h) of 5.01 ± 0.11. On the same counts, the results for EKGTWTELEGDVAEPLAGPACVTV [KLHL14] are 4.66 ± 0.19 and 4.6 ± 0.19.

EKRNAGNAVRSAMKSEEQKIKDAR [KMT5A] yielded a protein stability index (treatment: DMSO) of 4.72 ± 0.15 and a protein stability index (treatment: MLN4924 1 uM, 8 h) of 5.09 ± 0.21. On the same counts, the results for EKYSVATQLFIGGVTGWCTGFIFQ [FUNDC2] are 2.75 ± 0.75 and 3.06 ± 0.35. For ELDELQLCKNCFYLSNARPDNWFC [ZMYND11] the same measures were 2.01 ± 0.25 and 2.3 ± 0.62.

For the sequence ELDLSLSDLNEVPVKELAALPKAT [LRRC59], the protein stability index (treatment: DMSO) turned out to be 4.4 ± 0.25 and the protein stability index (treatment: MLN4924 1 uM, 8 h) was 4.49 ± 0.29. On the same counts, the results for ELDPEVEGTKPSATEMIWAVLAAF [GOLPH3L] are 2.21 ± 0.36 and 2.37 ± 0.28.

On to ELGEEAMEKFREDEGFIKEEERPL [KCNA1], for which the protein stability index stood at 5.6 ± 0.31 (treatment: DMSO) and 5.63 ± 0.2 (treatment: MLN4924 1 uM, 8 h). On the same counts, the results for ELLQQLDLNNCKNNLEPILEGYIS [KRT71] are 2.54 ± 0.1 and 2.62 ± 0.36. On the same counts, the results for ELNFISVFWPQLPNGLEAAYEFAD [MMP1] are 2.45 ± 0.47 and 2.15 ± 0.59. For ELRDSSAYHVPNRTLASGRLLSYR [DNAAF3] the same measures were 3.04 ± 0.11 and 3.25 ± 0.096. Consider ELRLQSEAFKKHSLDLLSKERELN [CCDC89], for which the protein stability index reads like this: (treatment: DMSO) 3.8 ± 0.2; (treatment: MLN4924 1 uM, 8 h) 3.69 ± 0.42.

Regarding ELRNVQDVVEDYKKRYEEEINKRT [KRT71], the protein stability index runs as follows: (treatment: DMSO) 3.62 ± 0.35; (treatment: MLN4924 1 uM, 8 h) 4.45 ± 0.24. On the same counts, the results for EMAFNTRCKEENTIILQQLLPLRT [NLN] are 2.54 ± 0.55 and 2.5 ± 0.32. For EMEKSFREEEKTFWKKYRTFWKED [CCDC70] the same measures were 3.77 ± 0.31 and 3.67 ± 0.35.

Source of the values: the supplement of paper PMC10567573.
